# B1: P001017 (chimeric OX108) (antibody, V domains shown)
# VH: EVKLQQSGPELVKPGASVKMSCKASGYTFTSYVMHWVKQKPGQGLEWIGYINPYNDDTNYNEKFKGKATLTSDKSSSTAYMELSSLTSEDSAVYYCAREDYYGSRWGYWGQGTTLTVSS
# VL: DIVLTQSPASLAVSLGQRATISCRASKSVSTSGYSYMHWYQQKPGQPPKLLIYLASNLESGVPARFSGSGSGTDFTLNIHPVEEEDAATYYCQHSRELLTFGAGTKLELK
# notes: also called QX108; murine anti-CD200R1 antibody OX108
# B2: P001018 scFv mutant H3-Y102K (scFv)
# scFv: QVQLVQSGAEVKKPGASVKVSCKASGYTFTSYVMHWVRQAPGQGLEWMGYINPYNDDTNYNEKFKGRVTMTRDTSTSTVYMELSSLRSEDTAVYYCAREDYYGSRWGKWGQGTLVTVSSGGGGSGGGGSGGGGSDIVLTQSPASLAVSPGQRATITCRASKSVSTSGYSYMHWYQQKPGQPPKLLIYLASNLESGVPARFSGSGSGTDFTLTINPVEANDTANYYCQHSRELLTFGQGTKVEIK
# B3: P001018 scFv mutant H3-Y102T (scFv)
# scFv: QVQLVQSGAEVKKPGASVKVSCKASGYTFTSYVMHWVRQAPGQGLEWMGYINPYNDDTNYNEKFKGRVTMTRDTSTSTVYMELSSLRSEDTAVYYCAREDYYGSRWGTWGQGTLVTVSSGGGGSGGGGSGGGGSDIVLTQSPASLAVSPGQRATITCRASKSVSTSGYSYMHWYQQKPGQPPKLLIYLASNLESGVPARFSGSGSGTDFTLTINPVEANDTANYYCQHSRELLTFGQGTKVEIK
# B4: P001018 scFv mutant L3-L94H (scFv)
# scFv: QVQLVQSGAEVKKPGASVKVSCKASGYTFTSYVMHWVRQAPGQGLEWMGYINPYNDDTNYNEKFKGRVTMTRDTSTSTVYMELSSLRSEDTAVYYCAREDYYGSRWGYWGQGTLVTVSSGGGGSGGGGSGGGGSDIVLTQSPASLAVSPGQRATITCRASKSVSTSGYSYMHWYQQKPGQPPKLLIYLASNLESGVPARFSGSGSGTDFTLTINPVEANDTANYYCQHSREHLTFGQGTKVEIK
# B5: P001013 (IgG) (antibody, V domains shown)
# VH: EVQLLESGGGLVQPGGSLRLSCAASGFTFSGYDMSWVRQAPGKGLEWVSGIPPGDGSTYYADSVKGRFTISRDNSKNTLYLQMNSLRAEDTAVYYCAKHLVSDHPPSQYSDDGMDVWGQGTLVTVSS
# VL: QSVLTQPPSASGTPGQRVTISCSGSSSNIGNNDVNWYQQLPGTAPKLLIYYNSQRPSGVPDRFSGSKSGTSASLAISGLRSEDEADYYCGSWDYSLNGYVFGGGTKLTVL
# Key:
# [1] = target: T1, human CD200RLa (Sino Biological, 11620-H08H) recombinant protein (human, UniProt Q6Q8B3 24-239); test: ELISA, plate-bound human CD200RLa (2 ug/mL), antibody 0.0192-300 nM, O.D 450 nm; panel 'recombinant human CD200RLa'
# T1 construct: Bought; construct not described
# T1 sequence (looked up): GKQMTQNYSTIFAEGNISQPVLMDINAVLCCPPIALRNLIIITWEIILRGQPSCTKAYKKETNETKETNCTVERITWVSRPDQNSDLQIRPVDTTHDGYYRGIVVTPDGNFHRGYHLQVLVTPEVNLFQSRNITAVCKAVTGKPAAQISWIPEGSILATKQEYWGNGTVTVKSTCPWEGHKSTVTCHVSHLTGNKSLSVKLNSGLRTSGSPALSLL
# Protocol: 96-well plates were coated with human CD200RLa (Sino Biological, 11620-H08H) and monkey CD200RLa (Sino Biological, 11576-C02H) recombinant proteins at a concentration of 2 μg/mL at 4° C. for 16 hours, and blocked with 3% skim milk for 1 hour. […] Color was developed with a TMB substrate solution (Thermo Scientific, 34029, 1-Step™ Ultra TMB-ELISA Substrate Solution). The color reaction was stopped with stop solution (Invitrogen, SS04, ELISA Stop Solution).
# [2] = target: T2, human CD200R1 expressed on cells (Jurkat-CD200R1, U937-CD200R1, HH cells) (human, UniProt Q8TD46 25-348); test: flow cytometry, HH cells; drawn table
# T2 construct: whole, on cells; also called HH (CRL-2105); cell surface-expressed CD200R1
# T2 sequence (looked up): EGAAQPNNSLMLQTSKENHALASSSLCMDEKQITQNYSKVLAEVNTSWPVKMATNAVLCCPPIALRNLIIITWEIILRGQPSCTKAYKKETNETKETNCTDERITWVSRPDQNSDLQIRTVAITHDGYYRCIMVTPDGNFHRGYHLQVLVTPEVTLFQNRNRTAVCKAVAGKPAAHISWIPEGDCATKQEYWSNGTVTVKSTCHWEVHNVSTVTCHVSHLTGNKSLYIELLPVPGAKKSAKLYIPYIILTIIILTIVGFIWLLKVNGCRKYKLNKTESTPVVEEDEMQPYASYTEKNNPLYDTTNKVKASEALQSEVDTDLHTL
# [3] = target: T2, human CD200R1 expressed on cells …; test: flow cytometry, HH cells; drawn table, row EC50
# [4] = target: T3, mouse CD200R1 protein (R&D systems, 2554-CD) (mouse, UniProt Q9ES57 26-238, limits assumed); test: ELISA, plate-bound mouse CD200R1 (2 ug/mL), IgG 0.0192-300 nM, OD 450 nm; panel 'mouse CD200R1'
# T3 construct: Bought; construct not described
# T3 sequence (looked up): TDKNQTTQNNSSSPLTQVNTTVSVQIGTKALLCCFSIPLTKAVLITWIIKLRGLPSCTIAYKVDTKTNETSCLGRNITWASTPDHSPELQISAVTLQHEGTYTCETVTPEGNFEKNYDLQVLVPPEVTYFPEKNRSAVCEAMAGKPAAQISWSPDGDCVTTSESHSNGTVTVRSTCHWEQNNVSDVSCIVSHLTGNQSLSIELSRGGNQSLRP
# Protocol: 96-well plates were coated with human CD200R1 (R&D systems, 3414-CD) and mouse CD200R1 protein (R&D systems, 2554-CD) at a concentration of 2 μg/mL at 4° C. for 16 hours and then were blocked with 3% skim milk.
# Color was developed with a TMB substrate solution (Thermo Scientific, 34029, 1-Step™ TMB-ELISA Ultra Substrate Solution). The color reaction was stopped with stop solution (Invitrogen, SS04, ELISA Stop Solution). The absorbance was measured at an optical density of 450 nm.
Binder,binding result [1],Geo mean (%) at 0.05 nM [2] [%],Geo mean (%) at 0.19 nM [2] [%],Geo mean (%) at 0.78 nM [2] [%],Geo mean (%) at 3.125 nM [2] [%],Geo mean (%) at 12.5 nM [2] [%],Geo mean (%) at 50 nM [2] [%],Geo mean (%) at 200 nM [2] [%],Geo mean (%) at 800 nM [2] [%],EC50 [3] [nM],binding result [4]
B1,no binding (tested: 300 nM),,,,,,,,,,
B2,,2.1,6.1,17.1,35.3,67,85.7,104,120,9.79,
B3,,2,5.8,15.5,33.2,69.7,91.6,107,121,9.43,
B4,,2.2,5.6,18.5,35.3,59.1,75.2,96.7,105,9.4,
B5,no binding (tested: 300 nM),,,,,,,,,,no binding (tested: 300 nM)

# — US20260263521A1 (AIMED BIO, published 2026)
